Publication PMC5862715

Key:
Assay in all cases: SDS-PAGE without pre-heating, with zymogram; crude enzymes (high concentration of (NH4)2SO4) in loading buffer with 10% SDS, not pre-heated, 10% polyacrylamide gel; compared with samples heated at 100 °C for 5 min; dimer band active on xylan plate
[1] = molecular target: Xyn10AdLC, CBM1 and linker region removed Xyn10A (Aspergillus fumigatus Z5)
[2] = molecular target: Xyn10AdC, CBM1 removed Xyn10A (Aspergillus fumigatus Z5)
[3] = molecular target: Xyn10A, GH10 family xylanase from Aspergillus fumigatus Z5 (Aspergillus fumigatus Z5)

Xyn10AdLC, CBM1 and linker region removed Xyn10A (domain or fragment)
stoichiometry N [1]: 2

Xyn10AdC, CBM1 removed Xyn10A (domain or fragment)
stoichiometry N [2]: 2

Xyn10A, GH10 family xylanase from Aspergillus fumigatus Z5 (enzyme)
stoichiometry N [3]: 2
